Experiment [1] has as its target T1, recombinant human VCAM-1 domain 1-7/Fc chimera (R&D, 862-VC) (human, UniProt P19320 25-698).
T1 construct: domain: D1-D7; Bought; also called VD7; hVCAM-Fc-chimera; not shown: Fc of the bought chimera
T1 sequence (looked up): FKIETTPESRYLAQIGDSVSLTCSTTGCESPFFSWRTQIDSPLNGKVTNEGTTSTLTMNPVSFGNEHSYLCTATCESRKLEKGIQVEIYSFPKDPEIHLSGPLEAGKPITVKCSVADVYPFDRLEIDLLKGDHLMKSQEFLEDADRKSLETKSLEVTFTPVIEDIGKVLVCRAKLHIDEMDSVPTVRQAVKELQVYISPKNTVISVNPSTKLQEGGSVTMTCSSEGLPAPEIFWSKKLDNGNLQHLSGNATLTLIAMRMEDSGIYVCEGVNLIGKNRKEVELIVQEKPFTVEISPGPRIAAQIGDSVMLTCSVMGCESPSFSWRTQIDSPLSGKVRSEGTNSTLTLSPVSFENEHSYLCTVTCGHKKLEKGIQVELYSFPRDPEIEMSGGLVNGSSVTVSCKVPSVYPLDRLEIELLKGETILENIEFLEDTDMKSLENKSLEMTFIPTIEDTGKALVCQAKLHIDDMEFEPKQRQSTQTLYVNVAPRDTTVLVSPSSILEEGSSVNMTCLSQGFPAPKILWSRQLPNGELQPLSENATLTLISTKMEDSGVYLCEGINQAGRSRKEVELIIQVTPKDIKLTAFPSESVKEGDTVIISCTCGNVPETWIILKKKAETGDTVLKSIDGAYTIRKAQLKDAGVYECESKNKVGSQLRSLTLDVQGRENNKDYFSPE
Description: BIACORE (SPR), VCAM1/Fc immobilised on CM5 chip, antibody as analyte, 1:1 binding model. The method, then: (§1) Journal of Bioscience and Bioengineering Vol. 100, No. 3, 311-317, 2005).
(§2) For ligand immobilization to the sensor chip CM5, the chip should be first activated with a mixture of N-hydroxysuccinimide (NHS) and […] (Amine Coupling Kit, BR-1000-50) to prepare a NHS-ester-activated chip surface being highly reactive to amino group. 1 mg/ml of ligand to be immobilized was diluted in 97 μl of each sodium acetate solution (vary within the pH range from 4.0 to 5.5) at a dilution ratio of 3/100, and then applied at a flow rate of 10 μl/min for about 3 min (as a negative control, the ligand was diluted using a running buffer, HBS-EP buffer (BIACORE AB, Sweden) in the same manner). In order to immobilize the ligand at a predetermined value target RU (resonance unit), serial injection was carried out automatically, until reaching target RU. […] The final RU was determined by an immobilization report which provides a difference in RU values before and after injection of ethanolamine.
(§3) A flow cell 2-flow cell 1 mode provided by BIACORE instrument was employed in this experiment in order to remove non-specific binding. […] Through this procedure, an association/dissociation curve of the corresponding antigen and antibody was obtained, and an association/dissociation constant KD was calculated by BIAevaluation program (BIACORE AB, Sweden), as shown in FIG. 3.
For orientation: Surface plasmon resonance follows binding to a sensor surface in real time, without labels.

The target in experiment [2] is T1, recombinant human VCAM-1 domain 1-7/Fc …. Description: BIACORE (SPR), recombinant VCAM1/Fc immobilised on sensor chip CM5, antibody as analyte, 1:1 binding model. The method, then: as §1, §2, §3

B1: 7HT antibody (VCAM-1 antibody, VCAM-1 Ab) (antibody, V domains shown)
VH: EVQLVQSGGDLVKPGESLRLSCAASGFTFNDAWMTWVRQPPGKGLEWVGRIKSTTDGGTTNYAAPVEGRFTISRDDSKNTLYLEMNSLRAEDTAVYYCARIPLFNHDSGGYHGAFDIWGQGTMVTVSS
VL: DIQMTQSPSSLAVSLGERATINCKSSQSVLYSSNNKNYLAWYQQKPGQPPKLLIYWASTRESGVPDRFSGSGSGTDFTLTISSLQPEDFASYYCQESYSAPYTFGQGTKVEIKR
notes: Human antibody, full IgG; also called VCAM-1 Ab (7HT); 7HT Ab
Broadly, the Kd is the concentration at which binding is half-saturated. By koff is commonly meant the first-order rate constant of dissociation. For orientation: kon means a measure of how fast the partners come together. In the case of B1, in experiment [1], the Kd was ~6.3 nM. In experiment [2], the koff worked out at 0.00176 s⁻¹ and the kon was 279000 M⁻¹ s⁻¹.

The record behind these values is US20120276091A1 (HANWHA CHEMICAL, published 2012).
